By Kd is commonly meant the constant that tells how readily two partners part at equilibrium. By Ki is commonly meant a measure of affinity in units of concentration, obtained from inhibition or displacement. A lower Ki goes with higher affinity.

Data on 8 substances can be found in PMC6092944.

The target in the first assay is His6-MBP-PadeB1. The experiment in a line: fluorescence polarisation.
“Fl-PadeA (PadeA labelled with fluorescein-5-maleimide) (peptide)” came in with a Kd of 69 nM. That is a double-digit nanomolar value. Substance PadeA(−19 to −7) peptide returned a Ki of 119 nM.

The target in another assay is His6-MBP-PadeB1. The experiment in a line: fluorescence polarisation. This is another data set of the same source. For orientation: In fluorescence polarisation assays a small probe gives low polarisation when free and higher when bound to something large.
The substance PadeA precursor peptide, wild type (WT) had a Ki of 137 nM.

Take PadeA variant A1G (peptide): the Ki worked out at 127 nM. This Ki and that of the substance before are within 1.5-fold of each other. PadeA variant P–12A (peptide) had a Ki of 476 nM. Compared with the last substance, the Ki is about 3.7-fold higher. PadeA variant P–12A/Y–15A (peptide) registered a Ki of 1340 nM. Still for that read-out and setting: as for PadeA variant T–2A (peptide), the figure is 152 nM; as for PadeA variant Y–15A (peptide), 1180 nM. On to PadeA(−19 to −7) peptide, for which the inhibitory constant (Ki) is 120 nM.
